Drawing on PMC3459908 (2012), this text covers Kd for 7 molecules.

In assay [1] the target is BMP2 (Homo sapiens) (UniProt P12643). The assay can be described thus: SPR. As to conditions: cited from earlier work.
Assay [2] concerns the target T1, BMP9 (Homo sapiens (Human),Homo sapiens …, UniProt Q9UK05,Q9UK05).
T1 chain 1: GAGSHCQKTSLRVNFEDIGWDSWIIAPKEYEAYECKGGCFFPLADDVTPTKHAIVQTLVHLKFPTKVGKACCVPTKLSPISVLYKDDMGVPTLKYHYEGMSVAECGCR
T1 chain 2: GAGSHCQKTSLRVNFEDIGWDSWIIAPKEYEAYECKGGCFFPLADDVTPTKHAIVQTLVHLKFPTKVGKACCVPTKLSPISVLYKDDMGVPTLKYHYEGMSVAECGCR
The assay can be described thus: SPR kinetic 1:1, BMP immobilised, full soluble RGM analyte.

Assay [3] concerns the target T2, BMP2 (Homo sapiens, UniProt P12643).
T2 chain: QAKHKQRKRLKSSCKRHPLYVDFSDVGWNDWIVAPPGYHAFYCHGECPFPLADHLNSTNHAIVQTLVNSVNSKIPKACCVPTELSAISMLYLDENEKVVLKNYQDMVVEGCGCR
The assay can be described thus: SPR. In general terms: SPR reads the build-up and loss of mass on a sensor chip optically.

Assay [4] has as its target T3, BMP4 (Homo sapiens, UniProt P12644).
T3 chain: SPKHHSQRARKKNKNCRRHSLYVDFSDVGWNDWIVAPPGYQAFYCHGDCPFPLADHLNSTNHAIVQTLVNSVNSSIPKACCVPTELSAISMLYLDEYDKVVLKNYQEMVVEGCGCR
The assay can be described thus: SPR.

In assay [5] the target is T4, BMP7 (Homo sapiens, UniProt P18075).
T4 chain: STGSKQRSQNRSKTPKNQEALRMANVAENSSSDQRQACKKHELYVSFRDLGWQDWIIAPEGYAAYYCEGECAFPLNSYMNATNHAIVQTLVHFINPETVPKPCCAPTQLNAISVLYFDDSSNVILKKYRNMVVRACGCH
Put plainly: SPR.

Assay [6] concerns the target T5, BMP5 (Homo sapiens, UniProt P22003).
T5 chain: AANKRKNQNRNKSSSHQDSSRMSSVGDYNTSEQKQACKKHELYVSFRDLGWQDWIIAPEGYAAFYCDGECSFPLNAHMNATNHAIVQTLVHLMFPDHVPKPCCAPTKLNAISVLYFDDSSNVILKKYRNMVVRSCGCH
The assay can be described thus: SPR.

Assay [7] has as its target T6, BMP6 (Homo sapiens, UniProt P22004).
T6 chain: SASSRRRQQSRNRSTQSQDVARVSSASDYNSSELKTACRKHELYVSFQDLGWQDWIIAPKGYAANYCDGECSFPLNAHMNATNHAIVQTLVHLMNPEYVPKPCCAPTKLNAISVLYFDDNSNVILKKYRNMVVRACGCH
The assay can be described thus: SPR.

Assay [8] concerns the target T7, BMP7 (Homo sapiens (Human),Homo sapiens …, UniProt P18075,P18075).
T7 chain 1: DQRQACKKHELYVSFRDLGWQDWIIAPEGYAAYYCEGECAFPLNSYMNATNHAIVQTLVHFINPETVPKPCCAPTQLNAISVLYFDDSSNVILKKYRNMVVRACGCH
T7 chain 2: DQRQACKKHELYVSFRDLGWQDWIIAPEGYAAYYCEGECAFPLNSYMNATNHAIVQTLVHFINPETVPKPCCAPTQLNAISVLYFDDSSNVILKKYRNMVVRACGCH
The assay can be described thus: SPR kinetic 1:1, BMP immobilised, full soluble RGM analyte.

Assay [9] has as its target T8, BMP4 (Homo sapiens (Human),Homo sapiens …, UniProt P12644,P12644).
T8 chain 1: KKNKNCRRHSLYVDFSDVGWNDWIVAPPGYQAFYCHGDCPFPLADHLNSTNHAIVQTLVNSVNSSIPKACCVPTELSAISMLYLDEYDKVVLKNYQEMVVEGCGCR
T8 chain 2: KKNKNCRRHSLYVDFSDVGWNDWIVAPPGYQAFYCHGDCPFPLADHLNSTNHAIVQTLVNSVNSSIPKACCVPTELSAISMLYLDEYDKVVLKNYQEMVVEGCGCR
The description is as above.

Assay [10] has as its target T9, BMP5 (Homo sapiens (Human),Homo sapiens …, UniProt P22003,P22003).
T9 chain 1: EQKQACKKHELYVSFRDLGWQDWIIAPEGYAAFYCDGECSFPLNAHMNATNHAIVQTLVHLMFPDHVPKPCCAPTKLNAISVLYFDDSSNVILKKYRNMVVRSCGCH
T9 chain 2: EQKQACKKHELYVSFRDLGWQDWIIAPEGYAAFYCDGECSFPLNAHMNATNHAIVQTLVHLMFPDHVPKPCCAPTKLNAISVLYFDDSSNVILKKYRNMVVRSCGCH
Described as above.

In assay [11] the target is T10, BMP2 (Homo sapiens (Human),Homo sapiens …, UniProt P12643,P12643).
T10 chain 1: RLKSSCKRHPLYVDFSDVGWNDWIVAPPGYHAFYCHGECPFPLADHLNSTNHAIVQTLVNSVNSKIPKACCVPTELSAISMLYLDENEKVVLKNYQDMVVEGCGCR
T10 chain 2: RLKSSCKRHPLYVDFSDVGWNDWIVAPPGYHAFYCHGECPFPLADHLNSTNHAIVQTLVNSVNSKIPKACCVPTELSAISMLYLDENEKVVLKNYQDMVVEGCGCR
The assay is described as above.

In assay [12] the target is T11, BMP6 (Homo sapiens (Human),Homo sapiens …, UniProt P22004,P22004).
T11 chain 1: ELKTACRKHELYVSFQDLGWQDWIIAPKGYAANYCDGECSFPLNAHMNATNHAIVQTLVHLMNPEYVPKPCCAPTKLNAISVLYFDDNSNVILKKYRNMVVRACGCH
T11 chain 2: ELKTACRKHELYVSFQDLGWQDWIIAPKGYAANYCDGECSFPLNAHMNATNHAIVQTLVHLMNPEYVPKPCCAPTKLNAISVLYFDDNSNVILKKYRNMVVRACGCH
The assay is described as above.

Consider HJV (from UniProt Q6ZVN8), for which the Kd (usually the constant that tells how readily two partners part at equilibrium) in assay [1] was 140 nM.

B1: RGMA (protein)
chain: PCKILKCNSEFWSATSGSHAPASDDTPEFCAALRSYALCTRRTARTCRGDLAYHSAVHGIEDLMSQHNCSKDGPTSQPRL
Regarding B1, the Kd in assay [2] was > 100 nM.

B2: HJV (protein)
chain: QCKILRCNAEYVSSTLSLRGGGSSGALRGGGGGGRGGGVGSGGLCRALRSYALCTRRTARTCRGDLAFHSAVHGIEDLMIQHNCSRQGPTAPPPPRGPALPGAGSGLPAPDPCDYEGRFSRLHGRPPGFLHCASFGDPHVRSFHHHFHTCRVQGAWPLLDNDFLFVQATSSPMALGANATATRKLTIIFKNMQECIDQKVYQAEVDNLPVAFEDGSINGGDRPGGSSLSIQTANPGNHVEIQAAYIGTTIIIRQTAGQLSFSIKVAEDVAMAFSAEQDLQLCVGGCPPSQRLSRSERNRRGAITIDTARRLCKEGLPVEDAYFHSCVFDVLISGDPNFTVAAQAALEDARAFLPDLEKLHLFPSD
Consider B2, for which the Kd in assay [3] was found to be 9.4 nM; in assay [4], 4.5 nM; in assay [5], 20 nM; in assay [6] it was 17 nM; in [7], 8.1 nM.

B3: RGMB (protein)
chain: GDCQQPAQCRIQKCTTDFVSLTSHLNSAVDGFDSEFCKALRAYAGCTQRTSKACRGNLVYHSAVLGISDLMSQRNCSKDGPTSSTNPEVTHDPCNYHSHAGAREHRRGDQNPPSYLFCGLFGDPHLRTFKDNFQTCKVEGAWPLIDNNYLSVQVTNVPVVPGSSATATNKITIIFKAHHECTDQKVYQAVTDDLPAAFVDGTTSGGDSDAKSLRIVERESGHYVEMHARYIGTTVFVRQVGRYLTLAIRMPEDLAMSYEESQDLQLCVNGCPLSERIDDGQGQVSAILGHSLPRTSLVQAWPGYTLETANTQCHEKMPVKDIYFQSCVFDLLTTGDANFTAAAHSALEDVEALHPRKERWHIFPSSGN
For B3, the Kd in assay [7] was 28 nM.

B4: RGMA (protein)
chain: PHLRTFTDRFQTCKVQGAWPLIDNNYLNVQVTNTPVLPGSAATATSKLTIIFKNFQECVDQKVYQAEMDELPAAFVDGSKNGGDKHGANSLKITEKVSGQHVEIQAKYIGTTIVVRQVGRYLTFAVRMPEEVVNAVEDWDSQGLYLCLRGCPLNQQIDFQAFHTNAEGTGARRLAAASPAPTAPETFPYETAVAKCKEKLPVEDLYYQACVFDLLTTGDVNFTLAAYYALEDVKMLHSNKDKLHLYERTRDLPGRA
For the molecule B4, the Kd amounted to 22 nM in [3]; 14 nM in [4]; 63 nM in assay [5]; 83 nM in assay [6]; 55 nM in assay [7].

B5: RGMB (protein)
chain: QCRIQKCTTDFVSLTSHLNSAVDGFDSEFCKALRAYAGCTQRTSKACRGNLVYHSAVLGISDLMSQRNCSKDGPTSSTNP
Regarding B5, the Kd in [8] is 166 nM; in assay [9], 2.6 nM; in assay [10], 33 nM; in assay [11], 5.5 nM; in [2], > 30 nM.

B6: RGMC (protein)
chain: QCKILRCNAEYVSSTLSLRGGGSSGALRGGGGGGRGGGVGSGGLCRALRSYALCTRRTARTCRGDLAFHSAVHGIEDLMIQHNCSRQGPTAPPPP
On to B6, for which the Kd in assay [8] was 20 nM; in assay [9] it was 4.5 nM; in assay [12], 8.1 nM; in assay [10] it was 17 nM; in assay [11], 9.4 nM; in assay [2] it was > 200 nM.
